Collision cross section data for 50 sequences are collected here from the supplement of paper PMC10598134.

± gives the standard deviation.

This data set in a line: collision cross section of modified peptide (TIMS, N2, iRT-aligned); higher = larger / more extended gas-phase ion. An outline of the steps: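 On a timsTOF Pro/HT (dda-PASEF, nitrogen, ~2.4 mbar), synthetic peptide pools were analysed after a 120-min nanoflow C18 separation at 60 °C and identified in MaxQuant. Three reference ions served for 1/K0 calibration, with run-wise alignment to the median iRT peptide deviation. Collision cross section comes from the Mason-Schamp equation, using the most abundant feature per charge state averaged over 1–3 technical replicates.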

The mark [1] stands for this setting: charge state: 2, modification: Succinyl.
Setting [2] is: charge state: 2, modification: Biotin.
[3] abbreviates: charge state: 2, modification: Nitro (Y).
[4] abbreviates: charge state: 3, modification: Biotin.
The mark [5] stands for this setting: charge state: 2, modification: Methyl (K).
The mark [6] stands for this setting: charge state: 3, modification: Methyl (K).
Where [7] appears, read: charge state: 2, modification: Formyl.
The mark [8] stands for this setting: charge state: 3, modification: Formyl.
Where [9] appears, read: charge state: 2, modification: Phospho (Y).
Setting [10] is: charge state: 3, modification: hydroxyisobutyryl.
Where [11] appears, read: charge state: 2, modification: hydroxyisobutyryl.
[12] abbreviates: charge state: 2, modification: Butyryl.
Where [13] appears, read: charge state: 3, modification: Butyryl.
[14] abbreviates: charge state: 2, modification: HexNAc (ST).
The mark [15] stands for this setting: charge state: 2, modification: Trimethyl (K).
The mark [16] stands for this setting: charge state: 3, modification: Trimethyl (K).
Setting [17] is: charge state: 2, modification: Malonyl.
Where [18] appears, read: charge state: 3, modification: Succinyl.
[19] abbreviates: charge state: 2, modification: Glutarylation.
Where [20] appears, read: charge state: 3, modification: Methyl (R).
Setting [21] is: charge state: 2, modification: Acetyl (K).
Where [22] appears, read: charge state: 2, modification: Crotonyl.
[23] abbreviates: charge state: 3, modification: Crotonyl.

“LGVATVAKGVCGACK [_LGVATVAK(Succinyl)GVCGACK_]”: under setting [1], the collision cross section came out at 417.57 ± 0.55 Å². As to LEKTIDDLEEK [_LEK(Biotin)TIDDLEEK_], the collision cross section under setting [2] is on record as 422.95 ± 1.4 Å².

In turn, VYPSSLSK [_VY(Nitro (Y))PSSLSK_] came in with a collision cross section under setting [3] of 327.32 ± 0.71 Å². On to AAINQKLIETGER [_AAINQK(Biotin)LIETGER_], for which the collision cross section amounted to 426.96 ± 1.5 Å² under setting [2] and 497.24 Å² under setting [4]. As to IGNSYFKEEK [_IGNSYFK(Methyl (K))EEK_], the collision cross section amounted to 373.94 ± 0.87 Å² under setting [5] and 450.33 ± 4.8 Å² under setting [6]. “VFIGNLNTLVVKKK [_VFIGNLNTLVVK(Methyl (K))KK_]” yielded a collision cross section under setting [6] of 483.02 ± 5.9 Å².

For “LLIVSTTPYSEKDTK [_LLIVSTTPYSEK(Formyl)DTK_]”, the collision cross section reads like this: under setting [7], 448.09 ± 0.69 Å²; under setting [8], 480.73 ± 1.5 Å². In turn, “IVFSGNLFQHQEDSKK [_IVFSGNLFQHQEDSK(Dimethyl (K))K_]” gave a collision cross section (charge state: 3, modification: Dimethyl (K)) of 532.16 ± 0.77 Å². For STCTYVGAAK [_STCTY(Phospho (Y))VGAAK_], the collision cross section under setting [9] amounted to 346.22 ± 0.0011 Å². Regarding “DSINFLDHINGKK [_DSINFLDHINGK(hydroxyisobutyryl)K_]”, the collision cross section under setting [10] turned out to be 468.17 ± 2.7 Å². In the case of “TLDEILQEKK [_TLDEILQEK(hydroxyisobutyryl)K_]”, the collision cross section under setting [11] stood at 386.54 ± 0.81 Å².

With “DYSAPVNFISAGLKK [_DYSAPVNFISAGLK(Butyryl)K_]”, the collision cross section was 437.47 ± 5.8 Å² under setting [12] and 532.64 Å² under setting [13]. In turn, “SSSAGGQGSYVPLLR [_SSS(HexNAc (ST))AGGQGSYVPLLR_]” registered a collision cross section under setting [14] of 427.89 ± 0.57 Å². Consider “LTSLNVKYNNDK [_LTSLNVK(Trimethyl (K))YNNDK_]”, for which the collision cross section runs as follows: under setting [15], 406.52 ± 0.61 Å²; under setting [16], 461.22 ± 1.8 Å².

Regarding LYLPVQNK [_LY(Phospho (Y))LPVQNK_], the collision cross section under setting [9] was determined as 343.68 ± 6.9 Å². “GADFLVTEVENGGSLGSKK [_GADFLVTEVENGGSLGSK(Malonyl)K_]” gave a collision cross section under setting [17] of 475.75 ± 0.97 Å². In the case of “IVFSGNLFQHQEDSKK [_IVFSGNLFQHQEDSK(Succinyl)K_]”, the collision cross section is on record as 493.41 ± 1 Å² under setting [1] and 524.55 ± 2 Å² under setting [18]. As for “VGADGTVFATR [_VGADGTVFAT(HexNAc (ST))R_]”, under setting [14], the collision cross section is 366.62 ± 0.59 Å².

Take GEVQVSDKER [_GEVQVSDK(Methyl (K))ER_]: the collision cross section was found to be 360.9 ± 0.67 Å² under setting [5] and 436.39 ± 5.2 Å² under setting [6].

“SSFAYKDQNENR [_SSFAYK(Gluratylation)DQNENR_]” displayed a collision cross section under setting [19] of 404.81 ± 0.5 Å² and a collision cross section (charge state: 3, modification: Glutarylation) of 472.81 ± 1.2 Å². “YSSNLGNFNYEQRGAFR [_YSSNLGNFNYEQR(Methyl (R))GAFR_]” came in with a collision cross section under setting [20] of 534.33 ± 1.9 Å². On to “DFDTALKHYDK [_DFDTALK(hydroxyisobutyryl)HYDK_]”, for which the collision cross section runs as follows: under setting [11], 409.01 ± 0.39 Å²; under setting [10], 468.72 ± 1.9 Å².

On to “LTEKELAEAASK [_LTEK(Trimethyl (K))ELAEAASK_]”, for which the collision cross section came to 406.14 ± 0.61 Å² under setting [15] and 451.11 ± 2.4 Å² under setting [16].

Sequence “GGNFGGRGGYGGGGGGSR [_GGNFGGR(Methyl (R))GGYGGGGGGSR_]” had a collision cross section under setting [20] of 462.43 ± 2.7 Å². As for LGPNDQYK [_LGPNDQY(Nitro (Y))K_], the collision cross section under setting [3] amounted to 332.94 ± 1.8 Å². In turn, “VQGGALEDSQLVAGVAFKK [_VQGGALEDSQLVAGVAFK(Succinyl)K_]” returned a collision cross section under setting [1] of 480.13 ± 1.2 Å². In the case of “DSINFLDHINGKK [_DSINFLDHINGK(Butyryl)K_]”, the collision cross section under setting [13] came out at 471.81 Å².

Under setting [14], “ETTPSSLAVTQTMATK [_ETTPSSLAVTQT(HexNAc (ST))MATK_]” registered a collision cross section of 451.07 Å². ILDLKTGTVK [_ILDLK(Acetyl (K))TGTVK_]: the collision cross section under setting [21] was found to be 355.21 ± 0.89 Å². VETTVTSLKTK [_VETTVTSLK(Succinyl)TK_]: the collision cross section is, setting by setting: under setting [1], 381.14 ± 3.4 Å²; under setting [18], 451.06 Å².

Take “VSPASSVDSNIPSSQGYKK [_VSPASSVDSNIPSSQGYK(Crotonyl)K_]”: the collision cross section is, setting by setting: under setting [22], 464.78 ± 0.82 Å²; under setting [23], 560.75 ± 1.6 Å². In turn, “TQDQISNIKYHEEFEK [_TQDQISNIK(Trimethyl (K))YHEEFEK_]” came in with a collision cross section under setting [16] of 544.72 ± 0.9 Å². Consider “FGDSRGGGGNFGPGPGSNFR [_FGDSR(Methyl (R))GGGGNFGPGPGSNFR_]”, for which the collision cross section under setting [20] is on record as 500.57 ± 1.4 Å². “LQAAYAGDKADDIQK [_LQAAYAGDK(Malonyl)ADDIQK_]”: under setting [17], the collision cross section was found to be 436.07 ± 1.2 Å². “DTPTSAGPNSFNKGK [_DTPTSAGPNSFNK(Biotin)GK_]”: the collision cross section runs as follows: under setting [2], 428.73 ± 1.1 Å²; under setting [4], 478.46 Å². Take “IDLPAENSNSETIIITGKR [_IDLPAENSNSETIIITGK(Gluratylation)R_]”: the collision cross section under setting [19] is 499.21 ± 1.9 Å². LLEQKTQESQK [_LLEQK(Butyryl)TQESQK_]: the collision cross section under setting [12] is recorded as 398.26 ± 0.79 Å². Under setting [1], LAEEENKAK [_LAEEENK(Succinyl)AK_] yielded a collision cross section of 348.59 ± 0.23 Å². For the sequence DFDTALKHYDK [_DFDTALK(Formyl)HYDK_], the collision cross section by setting is: under setting [7], 397.93 ± 1.3 Å²; under setting [8], 457.98 ± 2.1 Å².

With VETTVTSLKTK [_VETTVTSLK(Butyryl)TK_], the collision cross section under setting [12] was determined as 389.24 ± 1.3 Å². As to “LQEKVESAQSEQK [_LQEK(Succinyl)VESAQSEQK_]”, the collision cross section is, setting by setting: under setting [1], 417.9 ± 0.86 Å²; under setting [18], 502.42 ± 0.72 Å². “GTISAPGKVVTAAAQAK [_GTISAPGK(Butyryl)VVTAAAQAK_]”: the collision cross section is recorded as 447.93 ± 0.25 Å² under setting [12] and 519.35 ± 2.9 Å² under setting [13]. For “GSLEKGSPEDK [_GSLEK(hydroxyisobutyryl)GSPEDK_]”, the collision cross section under setting [11] was found to be 376.24 ± 0.91 Å². As for “AAINQKLIETGER [_AAINQK(Methyl (K))LIETGER_]”, the collision cross section is recorded as 414.21 ± 2.1 Å² under setting [5] and 471.88 ± 4.4 Å² under setting [6]. With LDHLAEKFR [_LDHLAEK(Biotin)FR_], under setting [4], the collision cross section worked out at 452.58 Å². Take “GTISAPGKVVTAAAQAK [_GTISAPGK(Crotonyl)VVTAAAQAK_]”: the collision cross section by setting is: under setting [22], 447.33 ± 0.83 Å²; under setting [23], 518.96 ± 1.2 Å². “INNFSADIKDSK [_INNFSADIK(Acetyl (K))DSK_]” returned a collision cross section under setting [21] of 398.34 ± 0.77 Å². As to “DAEAAEATAEGALKAEK [_DAEAAEATAEGALK(Biotin)AEK_]”, the collision cross section under setting [2] is 451.86 Å² and the collision cross section under setting [4] was determined as 551.51 Å².

Consider PRLPATGTFK [_PR(Methyl (R))LPATGTFK_], for which the collision cross section reads like this: (charge state: 2, modification: Methyl (R)) 353.59 ± 0.84 Å²; under setting [20], 458.58 ± 3 Å².

Regarding “DAEAAEATAEGALKAEK [_DAEAAEATAEGALK(Succinyl)AEK_]”, the collision cross section is 437.62 ± 0.51 Å² under setting [1] and 541.32 ± 2 Å² under setting [18].
